Measurements published in article PMC1636458 (Nucleic Acids Research, 2006).
Where two headings read alike, the source gives them in different places. Values belong to the binder of their own block, whether it stands above or below them.

Key:
[1] = target: T1, TBPm3 (altered specificity TATA-binding protein mutant) (UniProt P13393 1-240, I194F;V203T;L205V); assay: EMSA kinetics
T1 sequence: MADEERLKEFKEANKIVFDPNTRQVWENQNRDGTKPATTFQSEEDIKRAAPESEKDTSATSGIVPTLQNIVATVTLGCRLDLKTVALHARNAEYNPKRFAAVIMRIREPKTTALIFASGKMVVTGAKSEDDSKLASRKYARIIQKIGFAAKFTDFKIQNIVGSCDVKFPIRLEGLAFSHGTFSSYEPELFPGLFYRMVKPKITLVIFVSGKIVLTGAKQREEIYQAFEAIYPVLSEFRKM

[2] = target: T2, Brf1 (TFIIB-related factor, subunit of TFIIIB) (S. cerevisiae, UniProt P29056 1-596); assay: native gel or EMSA
T2 sequence (looked up): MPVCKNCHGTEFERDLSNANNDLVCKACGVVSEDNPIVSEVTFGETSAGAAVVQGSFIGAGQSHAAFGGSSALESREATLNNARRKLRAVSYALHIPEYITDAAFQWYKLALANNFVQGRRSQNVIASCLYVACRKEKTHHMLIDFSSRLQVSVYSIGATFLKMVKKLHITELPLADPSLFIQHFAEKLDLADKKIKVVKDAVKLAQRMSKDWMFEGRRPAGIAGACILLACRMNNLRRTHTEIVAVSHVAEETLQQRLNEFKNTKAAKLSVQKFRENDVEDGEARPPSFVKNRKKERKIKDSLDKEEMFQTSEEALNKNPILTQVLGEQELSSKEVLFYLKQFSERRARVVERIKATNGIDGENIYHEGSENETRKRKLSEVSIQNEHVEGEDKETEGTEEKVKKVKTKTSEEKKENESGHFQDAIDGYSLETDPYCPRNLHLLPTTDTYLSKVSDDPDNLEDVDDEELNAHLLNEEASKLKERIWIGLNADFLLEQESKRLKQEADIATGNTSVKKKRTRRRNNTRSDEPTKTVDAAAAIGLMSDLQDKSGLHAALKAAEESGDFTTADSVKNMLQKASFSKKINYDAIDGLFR

[3] = target: T1, TBPm3 (altered specificity TATA-binding …); assay: MPE-Fe
[4] = target: T1, TBPm3 (altered specificity TATA-binding …); assay: EMSA kinetics; remark: listed apart in the source

B1: TATA probe (U6 TATA box), 26 bp (dsDNA)
DNA 1: CGTGACTACTATAAATAGATGATCCG
DNA 2: CGGATCATCTATTTATAGTAGTCACG
Kd [1]: 0.3 nM

binding result [2]: binds
B2: TBPm3 (altered specificity TATA-binding protein mutant) (natural protein, S. cerevisiae, UniProt P13393 1-240, looked up)
chain: MADEERLKEFKEANKIVFDPNTRQVWENQNRDGTKPATTFQSEEDIKRAAPESEKDTSATSGIVPTLQNIVATVTLGCRLDLKTVALHARNAEYNPKRFAAVIMRIREPKTTALIFASGKMVVTGAKSEDDSKLASRKYARIIQKIGFAAKFTDFKIQNIVGSCDVKFPIRLEGLAFSHGTFSSYEPELFPGLFYRMVKPKITLVIFVSGKIVLTGAKQREEIYQAFEAIYPVLSEFRKM

B3: 76 bp DNA with favored sequence TGTAAATTG (dsDNA)
DNA 1: CGCTGCAATCTCTTTTTCAATTGCTCCGGACTGTAAATTGGCGGTCCCTTACTCTTTCCTCAACAATTAACGGCCC
DNA 2: GGGCCGTTAATTGTTGAGGAAAGAGTAAGGGACCGCCAATTTACAGTCCGGAGCAATTGAAAAAGAGATTGCAGCG
binding result [3]: binds

B4: TGTA probe, 26 bp (dsDNA)
DNA 1: CGTGACTACTGTAAATAGATGATCCG
DNA 2: CGGATCATCTATTTACAGTAGTCACG
Kd [4]: 0.6 nM
